Laboratory results as given in paper PMC11672308.

B1: GLUT1: N45D (protein)
parent chain: MEPSSKKLTGRLMLAVGGAVLGSLQFGYNTGVINAPQKVIEEFYNQTWVHRYGESILPTTLTTLWSLSVAIFSVGGMIGSFSVGLFVNRFGRRNSMLMMNLLAFVSAVLMGFSKLGKSFEMLILGRFIIGVYCGLTTGFVPMYVGEVSPTALRGALGTLHQLGIVVGILIAQVFGLDSIMGNKDLWPLLLSIIFIPALLQCIVLPFCPESPRFLLINRNEENRAKSVLKKLRGTADVTHDLQEMKEESRQMMREKKVTILELFRSPAYRQPILIAVVLQLSQQLSGINAVFYYSTSIFEKAGVQQPVYATIGSGIVNTAFTVVSLFVVERAGRRTLHLIGLAGMAGCAILMTIALALLEQLPWMSYLSIVAIFGFVAFFEVGPGPIPWFIVAELFSQGPRPAAIAVAGFSNWTSNFIVGMCFQYVEQLCGPYVFIIFTVLLVLFFIFTYFKVPETKGRTFDEIASGFRQGGASQSDKTPEELFHPLGADSQV
B2: GLUT1: MGAT4A knockdown (protein)
parent chain: B1 parent chain

Experiments:
[1] = IF staining, 293T; conditions: glycan lost; control: GLUT1-WT
[2] = IF co-staining, Ishikawa cells; conditions: glycan changed form; control: shC with GAL9 overexpression

Protein	localisation_or_trafficking [1]	localisation_or_trafficking [2]
B1	decreases	
B2		decreases
